Experiments:
Experiment in all cases: fluorescence anisotropy competition
[1] = test system: Ets-1 ETS domain WT (Mus musculus); details: normo-osmotic; 10 mM TrisHCl pH 7.4, 0.15 M NaCl, 0.1 mg/ml BSA, betaine to set osmolality (0.3 osm without stress); Cy3-DNA probe displaced by unlabeled DNA; binding …
[2] = test system: PU.1/Ets-1 wing chimera; details: 10 mM TrisHCl pH 7.4, 0.15 M NaCl, 0.1 mg/ml BSA, betaine to set osmolality (0.3 osm without stress); Cy3-DNA probe displaced by unlabeled DNA; binding …
[3] = test system: PU.1/Ets-1 loop chimera; details: 10 mM TrisHCl pH 7.4, 0.15 M NaCl, 0.1 mg/ml BSA, betaine to set osmolality (0.3 osm without stress); Cy3-DNA probe displaced by unlabeled DNA; binding …
[4] = test system: PU.1/Ets-1 H2 chimera; details: 10 mM TrisHCl pH 7.4, 0.15 M NaCl, 0.1 mg/ml BSA, betaine to set osmolality (0.3 osm without stress); Cy3-DNA probe displaced by unlabeled DNA; binding …
[5] = test system: PU.1/Ets-1 S3 chimera; details: 0.1 mg/ml BSA, betaine to set osmolality (0.3 osm without stress), Cy3-DNA probe displaced by unlabeled DNA
[6] = test system: PU.1/Ets-1 H3 chimera; details: 10 mM TrisHCl pH 7.4, 0.15 M NaCl, 0.1 mg/ml BSA, betaine to set osmolality (0.3 osm without stress); Cy3-DNA probe displaced by unlabeled DNA; binding …
[7] = test system: PU.1 ETS domain WT (PU.1ΔN167); details: 10 mM TrisHCl pH 7.4, 0.15 M NaCl, 0.1 mg/ml BSA, betaine to set osmolality (0.3 osm without stress), Cy3-DNA probe displaced by unlabeled DNA

| Substance | Kd [1] [nM] | Kd [2] [nM] | Kd [3] [nM] | Kd [4] [nM] | Kd ([5]; 10 mM TrisHCl pH 7.4, 0.15 M NaCl, binding …) [nM] | Kd [6] [nM] | Kd ([7]; binding …) [nM] | binding signal ([5]; weaker than S3 chimera on N1, 10 mM TrisHCl pH 7.4, 0.15 M NaCl, scale: fold stronger than WT PU.1 on the same low-affinity DNA) | binding signal ([7]; may replot earlier WT data, scale: fold affinity vs S3 chimera on the same low-affinity DNA) |
| --- | --- | --- | --- | --- | --- | --- | --- | --- | --- |
| SC1 optimal Ets-1 site | 0.17 | – | – | – | – | – | – | – | – |
| AGC high-affinity PU.1 site, 23-bp duplex | 0.6 | 1.6 | 1.3 | 0.8 | 0.49 | 22 | 0.34 | – | – |
| low-affinity PU.1 site, 23-bp duplex | – | – | – | – | – | – | – | 5 | 0.2 |

Source: publication PMC6237740
